Experiment: soluble fraction after stress (log2 fold change); higher = more stays soluble; pooled small domains, quantitative proteomics
Conditions: stress: 50 degC
Procedure, shortened: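 After stress at 50°C, the amount of each protein still soluble was measured. This was done on pooled custom libraries of small protein domains, using high-throughput quantitative proteomics. The figure given is a base-two log fold change and stands for aggregation propensity, with higher values meaning more protein stays in solution.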

Sequence | soluble fraction (log2)
HMIISMKKTATKEQIAHVRELIEGMGYKAHMSVGAERVIFGAIGDERGKERLVSLEAQPGVEKVIPIL | 0.255
HMGIILDWELFEQFADKLKRKKVDFVIEPYLRFEGRRGEQSTLFIKDPSGNYLEFKAFKNIDMLFEK | -0.874
HMEKLSMLKIKELFRLAIEMNLSHRQIAQSLNVSHTVVNRYLKRFKKSNLSYETLLKLGDKEIISALYEH | -2.29
HMDTFNVIARQEIDGILYEYKIMTVEDYKNQSPENLAVIYENIKAVMEQYDLSEDDADAILVDLLG | -1.12
HMSDAIQLEQKIGLEAIEWYLALSEQTDDKLLYQQWQSWLAADPQHQLAWSRIEQVNHGLNTL | -0.706
HMSSDLSNVVKIIDTLKHKKGALLPILHQIQREIGYIPLKTIDTIAKKLQQTPAEIHGVISFYHQFRTS | 0.0942
HMGGYLIGDVAQMVGLSRDALRFYEKKGIIRADKKENGYRYYSEDDIYRLMYILYHRKMNTSLEEIGGLMS | -0.739
HMIEKGSDALEKELRKNNLSINEFLTNKNIDIILDELKLKDIDDLYVNIALGKYTPNQIIKIVNK | 0.237
HMGASIQITVNNTPVMLKNKTHYTLVDVLDFYPFDLSKMGGTELYTAINGVKSGFTDPVHANDSIEIYWI | -0.148
HMGMAGILDSARMASFIQEKLGYGGGQIRASVMGGHGDDMVPLPRYSTVAGVPLSDVLTQNEIDEMFAQ | -0.0615
HMFDFMVLGQAIKKARESKEMTREQLAEILDVAPRHIQSIENEGQYPSFPLFIRLVTMFNISVDQY | -1.92
HMPDFLAELAARMERDAVTEAQIRQVVAQKGHYPEEVSPAQYHPDFFRQWLFPHWEKIVDVIRSSPEYTP | -0.0503
HMREGRERRLSQLLSYLRTHHILTRSEYVKLTGLSPTAASSELKTFVTAGHIVRKGIASHSTYRLPH | -1.71
HMGIAEAKRVIVRTLHDVLGPEADFLTEKIDVAQTAAELRVHAEKYRDMLVDMGKPKKSAAFWEAFEAALP | -0.0544
HMSVADNALSRQAIESRIALFIQNEDPNHPRSDADIQKELAQAGVVISRRAITKYRNHLHIPSASLRRR | -1.03
HMGASVGEVESVKTASEIYTAAAGKIVAVNDAVAKDPSLVNSDPYGNGWLVKLEIADLSAINA | 0.000115
HMIETLGDATFKRLKAMILDGTLEPGTRLSEKKFADHLGVSRTPVREAIGQLVSEGLAKRSAGSAPVVSS | 0.0372
HMKTNQINVSGLSKEKNFEVLESLDVYKFYNLFFLNKIKIDQLINSYNHIDNYSVFKKYPSSLIVKLSE | 0.0996
HMSSYETVTLNGQRYFKYKVKSGEGLYAISRMFSTPIAEIIRHNPSSNAGLKNGQELLIPVN | 0.00287
HMPQISQDDLMEAGLIVGKEAKQRRIKLGEILGIGYVNAKQLPKRLQLFQVAKSDFEQAVQQIDG | -0.0431
HMQARSQQTIQTLFKAAAQILDKEGEAGLSTNKVAAAAGFSIGTLYQYFPSKEVLIQAMAAR | -0.0788
HMENVALYIRLKSMASVYDDVHGYNIEWIKSMIGLSIDIEKLRTVLEDVSWITKVEEDVYSFSKNAKPFE | -4.31
HMSGPDGLTEREIEVLRLLASGLSNRAIGERLYISTNTAANHVRSILLKTGAANRTQAAMYAADHEML | -1.37
HMDGPGAGGRFLAEDLGTGKMTLEALQRHYVTLVYSRTGKYEETARRLEIDRRTVKKYLDEELLAELRET | 0.084
HMNKKLEMKIEQLDLSVRLFNSLKRSGIYTVAQIIKLTEEDVMRFRSLGRKSFKELKEKLSEHGLEFE | -2.15
HMGPAVGAIRVEGNKRVEPETVRTYLTFNVGDPYDLAKVDESLKALFATGLFQDVRIRREGNTVVIVVVEN | -0.368

Sequence | soluble fraction (log2)
HMYTEIDDVKDLLSKIPSVNKLTTADRGMVQAARNAYDALDEDQKLYITIADVEKFNAAVEWMEEH | 0.0056
HMTISPYTKDDFLKGTKPFEDVYAHKADPFVHDRALEQMTIWAKSVGVNGFKKLYKAYIDSLRIKNKEI | 0.0524
HMGASSLVGRSARVLQAVTDSDGRIKLAGETWSARLAAGATSTVGPGEEVRVIAIHGATAIVAPV | 0.0322
HMHPMVEAYLADLDRALSGSDPREHAETMSAVREHLADAIAPDATAEQVRHALDELGPVEAIAAG | 0.0172
HMEEEVKVPKIKGLTEAEAKAKLKSEGLESGTARSAYSDTVEEGHIISQSIQEGTKVPKGTAVSYEVSKGK | 0.17
HMRIYTKDEYLAELSRYLHKLPQDDYESAMAYFREYFEEAGPENEAQAMRDLGTPKEAASEILQNLLH | -0.305
HMTTQERVSYSAFINDVETGRVAKVVISGYTIEGTRTNNSSFVTERPYGVDSNLSEVLMQNSVSIEGKA | -0.129
HMSAVVAPLPGLIQNILVKVGDTVHAGQHVLTMEAMKMENEIQTNRDGIIKDIKVRIGDSVNEGDTLIIL | -0.0224
HMPIDQAKRKKEIIQNFGIRKIYKFSEIFDLKFGRDNIIVTFLIILDMIKEGVVEINENKEEIEFEYK | -0.166
HMQVTGLTAENAHRVTMIREKGTDHPPVPFHFRKEHHGTGNYVHLYGNPEDRNELHSRDFKDWEAVAFK | 0.25
HMQNAMQKELIDAFQKAYPDLDITKIELVYGTYYEVEAMNSTTEFTYRYDQNSKTFILAEQDNADP | -0.202
HMGGKWKAIIIYHLKNGPKRFGELRRALISSTETVLSNQLKQLEQDGLVSRQVFGTKPPLKTVYSLTDFG | -3.06
HMDFVKGDTVVFIDAFMPDHLMTIHKVQGEGILLDGNHKFALAHLIRHASTVELNAKRRLSLTEQS | -2.05
HMTLPGQDFIRASQLKELIAKYDKQYYEEGVSDISDAEYDRLYEEYLEFENKYPELKDMADAPTKRV | 0.332
HMGPYGAGSAAPAEDGSGPEGWTVKGNAKSMLYHTEGSPYYGRTNADVWFRDEESAEAAGFRRWDRK | 0.0581
HMVSINETAFIQIKNSSATEIKEKITALKLDELKNVTITADIRTNKLIVVGPKATINKIQELVIELDTES | 0.281
HMEQSGDELKTWVDQAIAAYPEKVKEYQQGKKGLLALFIGEVMKRSKGTADPKKVNQLVTEALS | 0.045
HMLGNIERALEMLQEVAATMDPVDIRLLLSMAQVESVRGNTEAAVKLIDEALVIDPGNERIEQIRLRVL | -0.558
HMLISDENMLRDLVQAVLDENPKSVSDYKSGKTKAFGFLVGQTMKAVKGQADPMLVNKILTELLN | -0.0365
HMQNELAEARSQLAERKNIDQAKLILMKKRNISEPEAYKLLRSHAMQTNRRVAEVAESIITAESLLG | 0.0394
HMAIGDYYINASALNVRSGEGTNYRIIGALPQGQKVQVISENSGWSKINYNGQTGYIGTRYLSKTPV | -0.00322
HMLTANPEEVVNRLTSAGEVGVRPLLDVDDPINAISTLLAIREDVYKQFAQFDTVGKSPSEIAHEIDDFL | 0.00575
HMEKLPRYILPGVPKVKSINISSALDGLVQDYSREFNISQKDIFQIALVEFFKKYGYHNAVKAVL | -0.314
HMTRTEYMAQLEKYLKKLPHKEFQEAITFFNEYFDEAGPEKETAIMEELGSPKEAASELITNILNRHI | -0.149
HMIGVNMEKSTVEKFANELNLPIDLLLKQLESAGIKKTSGAEELLEADKSALLNYLQIEHGA | 0.085
HMNKPTFNIFNNRLTFPFKGDITIYSLDGKRVFSAYNESSVNLSFLNRGSYISEFNNSRSVLIL | -1.39

Sequence | soluble fraction (log2)
HMGLSAEAARMAIQDAGLSKEDFAQKLGIKKVERVVEWEAGTSKPTFVQAQKIANATNIPFGYLFLVNPPK | 0.0125
HMHLPDNAVSIISELKMTPEEVLELIGKLPHDFLFLPYSQRKKIIVDLIPNKDYKLLMSLIKKFML | -1.12
HMLTNNYKNDKALRFAKNHGIHESNILKLVSLYENAPEKGFNAQSIAELLGITPRSASRILVKLLQHNLIR | -1.42
HMTNVFSIIGKKALVIKDIDPIHSSGQIKLNGEVWSAETENDEIIKEGSEVEVLKINGVKAIVKLV | -0.107
HMVENMDEFIGRVRRLVSDRLDLLKEASDDEIRETISQVVLELSREQFLTLNEKKTVLEGVFNSMR | -0.399
HMEVPNLIGMTDKDLQRTYFQLPIEAAGDGSVVIKQLPEPGEKVKEGSVIRVLLG | 0.171
HMHHIDYKQLRRINPVAARRAVLDYLESTGGNITKTAQVFSINRSVVYDILKKQASGDLSDRLRIP | -1.32
HMSDIYSLFERELGRTLSSYEYEIIGKWIEKGVSEDTIKRALKEAILNGVTNFKYIDKIIYDWSKN | -0.499
HMTSPKSRIVSALLASPSRPEELAMRLGEDILTLMRTLTDFEASGIIQRLPDGRYTPTREYHLGLVDK | 0.0852
HMQTAAANPSPESILQAREAAGLSQSEAGALIYSGLRSWQHWEWGTRRMHPGLFELFLKKTGQI | -1.7
HMNPYQDSILLWKSFDTPLTNEDFMGLSKEELRIARNEIYAAYGRIFTSQDLIDYFNSKPWYQGTTPA | -0.202
HMDDVIDVYATYDVSPTNQISNIKLYSDAAHANPVTGEAGKSYNDITEGHPGYQFRWSGTTWVPI | -0.295
HMTDFLKTRIDTLGLSTRTLNALSEANVRTIGGIARKKQEDLLEIDGIGEKGIQEIKKMLGEYGITL | -0.126
HMGVKHKHKGAGELLAALRTMFPNSSVSTLRKMLTQGRVVLNGEVVHRAKHELTDGDTIEVLERQRAER | 0.209
HMKYTEEIFNILSRGGFISANSVSSTVKRYYDALEEDFTEYYDYYKGIGFYLEAGNGYYLFTR | -3.29
HMKGKITTNWVSLTSDLGWLRSELYSSGSVLEERISNEGLIELHLENFQNDLIKLLEVEGFDLIKE | -3.1
HMRGPPQVLVDVELEDGRVGQIGVRNGDDATELAETFVRAFRLEQSFVGRLANVIQGKIRELLHSQ | -0.889
HMVGEYTVKKGDTLWKIAGQTLGSPLRYAEIYELNKDVIEEAALGRGKKNSSNGHWIFQGTVLKIPA | -0.00974
HMKTFSTRLIALREAIGVNQSELARRVGVTPQAVQKWESGANGPRGKRLEKLASELRSTVGYLVSGEGDG | -0.446
HMDNPKGNLQEAVQAKGNEPIEYRVLNVDGPDHAREFKIAVFIGGKRKGTGVGNSKKKAEEIAAEKAFKRM | 0.127
HMARKTIFHSLLGELEQRIGRLPAGTILPAEQALADEYGVSKPTLRRALAELAEHGLITKENGIGSVVI | -0.45
HMLDYQLQVFKDTLEANRKHRGQKIVFIHGKGEGVLRRALIHALNYQYKKFTYQDASFREYGYGATQVTI | -0.103
HMAPGVHVEALLPYTAGSLVSQIREYGNVDAVEYRDTGILLQADVDERLAAQIMDQALEDPV | 0.0408
HMTPNATWQDDAQNLLRDLIQHQPVLVQISAAKRLRDQAEQISRITGGETVTREHVEAAGHALGMGVT | 0.0847

Reference: the domain aggregation screens of Martell et al. (2025)
